# In the supplement of paper PMC6379048:
# Key:
# Assay in all cases: EC50 of free RNA motif oligo competing protein binding to immobilised probe
# C1QBP = target: T1, C1QBP (UniProt Q07021)
# T1 sequence: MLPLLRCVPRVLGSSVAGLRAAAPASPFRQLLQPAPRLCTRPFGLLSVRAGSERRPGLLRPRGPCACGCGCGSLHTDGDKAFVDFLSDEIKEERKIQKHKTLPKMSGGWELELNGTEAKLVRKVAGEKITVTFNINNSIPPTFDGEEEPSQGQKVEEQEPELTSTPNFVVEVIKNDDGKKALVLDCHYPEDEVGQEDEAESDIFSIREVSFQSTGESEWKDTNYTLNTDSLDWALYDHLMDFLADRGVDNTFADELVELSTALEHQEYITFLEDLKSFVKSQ
# Outline: (§1)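 Free RNA oligos (0 nM to 30 μM) were pre-incubated with HEK293-FT lysate (2.5 mg protein/well) for 1 h at 4°C, followed by 30 min at 4°C with the same 5′-amino-C6 oligos coupled to NHS-Sepharose beads. Bound proteins were quantified by label-free LC-MS/MS and normalised to the control. EC50 was derived from a four-parameter log-logistic fit, and Kd was obtained by multiplying EC50 by a protein-dependent depletion factor.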
# HNRNPR = target: T2, HNRNPR (UniProt O43390)
# T2 sequence: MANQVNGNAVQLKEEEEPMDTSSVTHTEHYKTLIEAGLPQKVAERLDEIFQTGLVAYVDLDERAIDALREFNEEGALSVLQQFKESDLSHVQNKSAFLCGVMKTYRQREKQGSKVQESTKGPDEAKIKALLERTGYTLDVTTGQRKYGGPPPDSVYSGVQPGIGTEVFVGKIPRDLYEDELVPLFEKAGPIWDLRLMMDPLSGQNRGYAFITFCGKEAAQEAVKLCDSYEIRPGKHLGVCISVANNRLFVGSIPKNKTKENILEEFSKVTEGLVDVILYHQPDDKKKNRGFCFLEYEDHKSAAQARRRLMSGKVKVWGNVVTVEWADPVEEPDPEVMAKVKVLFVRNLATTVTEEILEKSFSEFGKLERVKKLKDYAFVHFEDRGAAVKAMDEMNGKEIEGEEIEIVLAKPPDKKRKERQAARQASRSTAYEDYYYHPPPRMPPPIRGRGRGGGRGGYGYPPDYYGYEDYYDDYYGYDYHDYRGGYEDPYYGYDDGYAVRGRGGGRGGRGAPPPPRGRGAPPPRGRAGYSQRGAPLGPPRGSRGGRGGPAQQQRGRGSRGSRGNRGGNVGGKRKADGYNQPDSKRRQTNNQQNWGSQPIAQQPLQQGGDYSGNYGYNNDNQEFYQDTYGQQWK
# Outline: as §1
# HNRNPF = target: T3, HNRNPF (UniProt P52597)
# T3 sequence: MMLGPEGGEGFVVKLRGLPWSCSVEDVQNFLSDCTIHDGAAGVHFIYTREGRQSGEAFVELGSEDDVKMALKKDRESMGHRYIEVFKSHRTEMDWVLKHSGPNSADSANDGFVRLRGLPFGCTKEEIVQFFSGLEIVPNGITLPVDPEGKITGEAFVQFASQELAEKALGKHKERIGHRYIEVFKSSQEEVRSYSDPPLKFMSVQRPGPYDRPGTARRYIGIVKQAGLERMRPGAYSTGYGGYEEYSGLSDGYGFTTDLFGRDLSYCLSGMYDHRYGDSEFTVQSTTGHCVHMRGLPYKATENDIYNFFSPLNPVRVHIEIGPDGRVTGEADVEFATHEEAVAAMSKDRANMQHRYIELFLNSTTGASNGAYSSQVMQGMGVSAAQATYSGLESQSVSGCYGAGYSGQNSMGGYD
# Outline: as §1
# TUBB2A = TUBB2A (UniProt Q13885)
# Outline: as §1
# CSNK2A1 = CSNK2A1 (UniProt P68400)
# Outline: as §1
# SRSF11 = target: T4, SRSF11 (UniProt Q05519)
# T4 sequence: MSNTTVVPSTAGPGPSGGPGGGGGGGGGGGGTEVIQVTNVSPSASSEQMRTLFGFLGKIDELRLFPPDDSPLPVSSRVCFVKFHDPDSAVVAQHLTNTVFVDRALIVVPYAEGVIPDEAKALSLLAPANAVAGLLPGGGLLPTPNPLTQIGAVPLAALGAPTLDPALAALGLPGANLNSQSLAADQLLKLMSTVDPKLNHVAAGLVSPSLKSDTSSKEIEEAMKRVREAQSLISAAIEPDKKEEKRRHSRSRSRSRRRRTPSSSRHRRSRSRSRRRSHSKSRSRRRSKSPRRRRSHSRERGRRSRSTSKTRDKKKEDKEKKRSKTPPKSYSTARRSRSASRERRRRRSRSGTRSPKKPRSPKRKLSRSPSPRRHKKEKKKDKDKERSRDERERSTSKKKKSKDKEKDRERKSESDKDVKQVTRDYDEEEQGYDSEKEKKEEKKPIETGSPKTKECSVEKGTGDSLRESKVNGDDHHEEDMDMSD
# Outline: as §1
# SRSF7 = target: T5, SRSF7 (UniProt Q16629)
# T5 sequence: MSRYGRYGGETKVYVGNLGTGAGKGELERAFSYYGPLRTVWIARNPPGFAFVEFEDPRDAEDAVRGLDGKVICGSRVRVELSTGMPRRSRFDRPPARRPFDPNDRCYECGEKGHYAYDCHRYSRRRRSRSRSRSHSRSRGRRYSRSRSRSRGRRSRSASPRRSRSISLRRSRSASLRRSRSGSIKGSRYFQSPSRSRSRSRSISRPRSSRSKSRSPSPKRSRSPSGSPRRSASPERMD
# Outline: as §1
# MRPL1 = MRPL1 (UniProt Q9BYD6)
# Outline: as §1
# MRPS18A = MRPS18A (UniProt Q9NVS2)
# Outline: as §1
# PTCD3 = PTCD3 (UniProt Q96EY7)
# Outline: as §1
# CSNK2A1, sequence (P68400 whole entry, looked up): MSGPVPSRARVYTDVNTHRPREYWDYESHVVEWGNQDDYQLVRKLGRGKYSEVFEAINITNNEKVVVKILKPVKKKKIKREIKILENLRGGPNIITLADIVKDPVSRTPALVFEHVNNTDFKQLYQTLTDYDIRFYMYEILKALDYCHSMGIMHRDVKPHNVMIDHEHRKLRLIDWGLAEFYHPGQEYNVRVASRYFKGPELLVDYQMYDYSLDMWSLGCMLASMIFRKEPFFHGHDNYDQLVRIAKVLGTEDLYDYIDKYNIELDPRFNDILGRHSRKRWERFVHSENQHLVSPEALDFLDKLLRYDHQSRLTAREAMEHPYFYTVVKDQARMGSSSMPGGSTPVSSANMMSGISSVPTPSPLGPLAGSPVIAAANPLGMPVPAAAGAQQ
# TUBB2A, sequence (Q13885 whole entry): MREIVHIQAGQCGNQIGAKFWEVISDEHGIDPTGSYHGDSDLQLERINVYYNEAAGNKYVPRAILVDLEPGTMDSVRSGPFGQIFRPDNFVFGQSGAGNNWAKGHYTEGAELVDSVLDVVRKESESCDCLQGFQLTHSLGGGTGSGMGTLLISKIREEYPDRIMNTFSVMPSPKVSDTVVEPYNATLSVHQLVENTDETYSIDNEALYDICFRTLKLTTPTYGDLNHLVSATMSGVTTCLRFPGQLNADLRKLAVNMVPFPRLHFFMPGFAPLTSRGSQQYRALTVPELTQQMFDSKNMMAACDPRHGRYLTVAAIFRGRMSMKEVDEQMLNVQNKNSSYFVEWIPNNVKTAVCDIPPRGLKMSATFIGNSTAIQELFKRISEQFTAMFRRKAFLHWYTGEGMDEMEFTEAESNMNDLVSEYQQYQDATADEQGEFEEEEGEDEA
sequence,measurement,setting,value
AAUAAA,EC50,C1QBP,1470 nM
same,EC50,HNRNPR,2840 nM
same,EC50,HNRNPF,6120 nM
same,EC50,TUBB2A,1090 nM
same,EC50,CSNK2A1,124 nM
same,EC50,SRSF11,1110 nM
CUGUCCU,EC50,SRSF7,3020 nM
same,EC50,MRPL1,259 nM
same,EC50,MRPS18A,102 nM
UAUUUAU,EC50,PTCD3,50 nM
